5 molecules from patent publication US20150335768A1 (CURATORS OF THE UNIVERSITY OF MISSOURI, published 2015) can be followed below.

Ends that are not written are not given here.

The target in one assay is T1, bovine serum albumin (bovine, UniProt P02769 25-607).
T1 construct: Control protein spotted on nitrocellulose; also called BSA
Put plainly: immunoblot (dot blot) on nitrocellulose, streptavidin-alkaline phosphatase. Background: In western blotting, separated proteins are transferred to a membrane and probed.

Another assay deals with T2, bovine asialofetuin (bovine, UniProt P12763 19-359, desialylated glycoprotein).
T2 construct: Control protein spotted on nitrocellulose; also called ASF; AF
T2 sequence (looked up): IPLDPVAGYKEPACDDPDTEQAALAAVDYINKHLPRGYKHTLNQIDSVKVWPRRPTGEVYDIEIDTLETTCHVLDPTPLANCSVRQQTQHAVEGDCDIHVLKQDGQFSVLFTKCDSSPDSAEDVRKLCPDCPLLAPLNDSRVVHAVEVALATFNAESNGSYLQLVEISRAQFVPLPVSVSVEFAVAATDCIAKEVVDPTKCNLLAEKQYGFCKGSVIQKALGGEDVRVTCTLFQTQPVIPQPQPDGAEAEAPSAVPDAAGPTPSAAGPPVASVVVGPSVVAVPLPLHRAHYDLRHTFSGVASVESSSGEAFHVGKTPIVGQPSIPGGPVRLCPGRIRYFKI
The description is as above.

The target in assay [1] is T3, recombinant extracellular domain of human ErbB-2 tagged with the FLAG epitope (human, UniProt P04626 23-652).
T3 construct: extracellular domain; Expressed in HEK-293 cells, purified on anti-FLAG M2; Biotinylated for biopanning; also called ErbB-2-ECD; ErbB2-ECD
The assay is described as follows: four rounds of phage display affinity selection on biotinylated ErbB-2-ECD held on streptavidin plates. The procedure:
Biotinylated antigen was incubated with streptavidin coated plates for 2 hours at 4° C. In first and second round of selection 10 μg of biotinylated antigen per plate was added, in third round amount of antigen was decreased to 1 μg, and for fourth round of selection 0.1 μg of antigen was used. Unoccupied biotin-binding sites were blocked with 0.1 mM biotin. Phage was incubated with antigen for 4 hrs at RT. Plates were washed 10 times with TPBS to remove unbound phage. Bound phage was eluted with elution buffer (0.1 M HCl, pH is adjusted to 2.2 with glycine, 1 mg/ml BSA, 0.1 mg/ml phenol red) at RT during 10 min. […] After each round, except the last, the eluate of the bound phage was propagated and used as input for the next round. Individual clones were characterized by DNA sequencing after the fourth round of selection.
A random 6-amino acid peptide bacteriophage display library was affinity selected against the ErbB-2-ECD to identify novel peptide-ligands.

Assay [2] addresses T3, recombinant extracellular domain of …. Put plainly: quenching of intrinsic tryptophan fluorescence of soluble ErbB-2-ECD titrated with peptide, 1:1 model, global fit of three protein concentrations.
Experimental: The titrations were performed at 25° C. with varying amounts of peptide added to a fixed ErbB-2-ECD concentration (200-600 nM) in 2 ml of phosphate buffered saline (pH=7.4). Each measurement was collected for 5-20 sec after 1-2 min pre-equilibration. The excitation shutter remained closed during pre-equilibration of the sample and was opened only during data acquisition in order to minimize photobleaching of the sample. The fluorescence measurements were corrected for dilutions and photobleaching of ErbB-2-ECD. Values reported are an average of three independent measurements. […] The fitting procedure was performed using Origin (Microcal Software Inc).
Intrinsic tryptophan fluorescence of the protein was monitored as a function of peptide concentration. […] In the analysis, the inventors assumed a model with the stoichiometric ratio of protein to peptide equal to 1:1. The data were collected at 2 μM, 4 μM and 6 μM concentrations of the protein.

The Kd is the free concentration of one partner at which half of the binding sites on the other are occupied at equilibrium, for simple one-to-one binding.

T1 sequence (P02769 25-607 limits assumed): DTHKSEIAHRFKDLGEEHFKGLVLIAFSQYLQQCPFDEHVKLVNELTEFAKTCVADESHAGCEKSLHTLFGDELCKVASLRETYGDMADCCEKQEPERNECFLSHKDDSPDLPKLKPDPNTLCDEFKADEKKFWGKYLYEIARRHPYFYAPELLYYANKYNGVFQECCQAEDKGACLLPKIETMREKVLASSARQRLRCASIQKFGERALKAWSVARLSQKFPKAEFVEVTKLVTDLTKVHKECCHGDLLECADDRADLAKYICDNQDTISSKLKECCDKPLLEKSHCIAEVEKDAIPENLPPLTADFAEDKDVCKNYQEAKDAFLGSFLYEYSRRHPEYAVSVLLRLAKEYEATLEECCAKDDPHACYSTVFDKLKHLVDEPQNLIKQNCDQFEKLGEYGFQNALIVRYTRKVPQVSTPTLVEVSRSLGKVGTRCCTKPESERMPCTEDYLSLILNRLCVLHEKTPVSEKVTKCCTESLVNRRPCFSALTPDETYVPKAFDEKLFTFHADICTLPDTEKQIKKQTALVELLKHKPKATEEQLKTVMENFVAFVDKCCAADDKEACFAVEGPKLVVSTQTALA
Experimental for bovine asialofetuin: (§1) After washing three times with PBS, the membrane was incubated with 100 μM biotinylated peptide for 2 hrs at RT.
Experimental for bovine serum albumin: as §1

B1: biotinylated synthetic p6.1 peptide (peptide)
peptide: KCCYSL
modifications: cysteine pairing not given here; also: biotin label, position not given here
notes: Biotinylated analog of KCCYSL used in immunoblot, ELISA and cell staining; also called biotinylated p6.1
Turning to B1, the binding result with bovine serum albumin and in the assay with bovine asialofetuin was “no binding” throughout.

B2: phage-displayed p6.2 peptide WYAWML (peptide)
chain: WYAWML
notes: Only seen as phage clone; not synthesized; not shown: minor coat protein pIII of the fUSE5 (M13/fd type) bacteriophage vector; peptide inserted near the N-terminus of mature
Regarding B2, the binding result in assay [1] is given as “binds”.

B3: synthetic p6.1 peptide KCCYSL (peptide)
peptide: KCCYSL
modifications: not fully specified (bridges); also: present as oxidized and reduced monomer
notes: Chemically synthesized, not biotinylated; used in the fluorescence titration
On to B3, for which the dissociation constant (Kd) in assay [2] came out at 30.2 µM.

B4: phage-displayed p6.1 peptide KCCYSL (peptide)
chain: KCCYSL
modifications: also: C2-C3 disulfide in the oxidized monomer fraction
notes: Insert of the phage clones selected from the 6-mer library F3-6; not shown: minor coat protein pIII of the fUSE5 (M13/fd type) bacteriophage vector; peptide inserted near the N-terminus of mature
For B4, the binding result in assay [1] is recorded as “binds”.

B5: phage-displayed p6.3 peptide WYSWLL (peptide)
chain: WYSWLL
notes: as for B2
B5: the binding result in assay [1] is given as “binds”.
